In the DeepSol protein solubility set:

Test: soluble on expression in E. coli; label from the status in PepcDB or PDB records

| Sequence | soluble on expression in E. coli |
| --- | --- |
| MKTKSPALSGKLTDTELRTLRIFMAVVHYSGFTPAALELNVSRSAVSIAMADLEKRLSLRLCERGRAGFSLTTEGREVYRSTRQLFSALDQFRIQINAIHFNLKGELNIGITDNLVTMPQMRITSALRELNRLGPDVQINIQMIPPNEIISGVLDGQLHTGVIPVQKHYEGLEYLLLYEERSSLYCGQEHELFCRHDSELSPSMLKQYNGVLPAYDQTSEIKALHHELQLSASATDREGVAFLILTGRYIGYLPDHYAHRWVKEGVMRAILPANMSYLTPFATITKKGAPSNLVLENYLEQLKLASTTAGG | not soluble |
| MKTKVICLVRVSTQDQDYQRQISDLTKYSQARDFVIVDFISEKVSGTKRNEERNGIQELLKRARKKEFQKVIVQEISRLGRNPFQVQRVIEELAELSISVVVQNMNLETLDEGGNRNGFIDLMLSTAVHFSSIERSWIVNRIRSGQKNSKKKIGRPFNTFESKEAVLKKYAAVVRDLKSGISIRKVAKLNDLSTPTIQRVKKLMQEL | not soluble |
| MKTLLPTSTAGSLPKPSWLAEPEKLWSPWKLQGEELIDGKRDALRVALQEQELAGVDIVSDGEQTRQHFVTTFIEHLSGVDFENRKTVTIRNRYEASVPTVVGPVSRTKPVFVEDAKFLRQQTKQPIKWALPGPMTMIDTLYDDHYGSREKLAWEFAKILNQEAKELEAAGVDIIQFDEPAFNVFFDDVNEWGIACLERAIEGLKCETAVHICYGYGIKANTDWKQTLGTEWRQYEEVFPKLQQSNIDIISLECHNSRVPIELLELIRGKKVMVGAIDVATNEIETPEEVANTLREALKYVDADKLYPCTNCGMAPLSREVSTAKLNALSAGAEIVRRELSALEHHHHHH | not soluble |
| MKTLSTMATLLALSLPVMAQECASDIMRTAPNLRYVYSTQGTVKDLHTGLTWMRCTFGKEWNAEQGRCTGQAQPLRWQAALQEVQAINHPGSRHRLHQFAGVKQWRMPNIKELSSLTEQACFAPAANETAFASGLVTEVGNYAAYLWSNTTRIEREEAWTWDAINGEIYAYSIHAHEMGLLLVADELEHHHHHH | soluble |
| MKTRTQQIEELQKEWTQPRWEGITRPYSAEDVVKLRGSVNPECTLAQLGAAKMWRLLHGESKKGYINSLGALTGGQALQQAKAGIEAVYLSGWQVAADANLAASMYPDQSLYPANSVPAVVERINNTFRRADQIQWSAGIEPGDPRYVDYFLPIVADAEAGFGGVLNAFELMKAMIEAGAAAVHFEDQLASVKKCGHMGGKVLVPTQEAIQKLVAARLCADVTGVPTLLVARTDADAADLITSDCDPYDSEFITGERTSEGFFRTHAGIEQAISRGLAYAPYADLVWCETSTPDLELARRFAQAIHAKYPGKLLAYNCSPSFNWQKNLDDKTIASFQQQLSDMGYKFQFITLAGIHSMWFNMFDLANAYAQGEGMKHYVEKVQQPEFAAAKDGYTFVSHQQEVGTGYFDKVTTIIQGGTSSVTALTGSTEESQF | soluble |
| MKVAAKKLATSRMRKDRAAAASPSSDIENSENPSSLASHSSSSGRMTPSKNTRSRKGVSVKDVSNHKITEFFQVRRSNRKTSKQISDEAKHALRDTVLKGTNERLLEVYKDVVKGRGIRTKVNFEKGDFVVEYRGVMMEYSEAKVIEEQYSNDEEIGSYMYFFEHNNKKWCIDATKESPWKGRLINHSVLRPNLKTKVVEIDGSHHLILVARRQIAQGEELLYDYGDRSAETIAKNPWLVNT | not soluble |
| MKVAVLGATGKEGQLLLAEAKRRGMDVTAIVRNASKITDGTPTIEKDVYQLTTEDIQAFDVLISALGFPDVQDFPKSTQHLIEILTNQKTRLFVVGGAGTLYVDPEHTTQLKDTPSFPAEIQPLASAMGEALNLLKEAQNIHWTYISPAAMFDADGPATGHYEVAGEELTTNSQGDSYISYADYAVAMLDEVESNAHPNQRISVYQLEHHHHHH | soluble |
| MKVDGRRPEDEVIRETNAHGVSVVHIKKDPTTQKVEIVKNSIFNRRITASTVMEFAGAAAGSSLLATRFSPAGRQTRGTHNNCGNGYTPWGTYLTTEENFIGYFQRSGSDEYARTDAEKIALKRYGLGVKKDEPYLYEKDEKGAPKKDKDGKIIYLKDKNGELIPNVDEQGRQIYLGTSSRYGWETAIGQVESQDLYDRWNADVKAAQATQDYRNGPNTFGWMVEIDPFDGRQNPVKRTSLGRFAHEDSACRAVVGQPLAFYMGDDSRGEYIYKFVSTAVWDTKDINGGYTAGDKYMNAGKLYVAKFNNDGSGQWIELAYGKNGLNESNTTYPFKSQADVVTFARLAADSVGATKMDRPEWCTVNPVNGEIYVTLTNNSNRGKDYATDAANPRNYTDLYAGTKEQKGNVNGHIIRFKETDDKTTAETFKWDIYLFGAEASMASNINLSGLTDNNDFSSPDGMWFDPRGVLWIETDDGAYTDVTNCMMLAALPGQIGDGGTATTSNGQQTITGAKVTDATLRRFLVGPKQCEITGIAMTPDYKAIFINVQHPGEDSPSYAKPESNWPATQKDPSNKTARPRSATVVITRKDGGVIAGLEHHHHHH | soluble |
| MKVDVDEKTYIITMANDITKLYEENKRNLHYSITDPLTGAYNRKYLNDRFDIFIGDYIVLIDLDNFKMINDYEGHNVGDKILCDFVSLLNKELINSTSIIRLGGDEFIVIFSSDVDKNYVYSQLEALRENFLKVFSKYKYLSFSYGVDTVKRNLKLTIVELDKKMYKNKEKLEHHHHHH | not soluble |
| MKVEEQYLQLFRENREAIDSHSPRVLNEQREKASMAFASKGLPRYGTENYQRTDLSELFGYDYGVNLNRVNFPIRQKEAFHCTLPDLDTDLCYIVNDAYDNEWSRVSELPEGAFVGSLSDFALSHPEIAARYYAQAAAPDHDGIIAFSTMFAQDGFIIYLPDGAVLKNPIQLVQLLRADMEIL | not soluble |
| MKVEIEPQTLRYQPKEIRETKRPTIAYEHPNALTYLKSMKENIIRFANKKSLYTQHDEYIKNVFMDERVNLKYHCESIVSYIAEAFIHYSVWDHSHAYYPGRPSQQTARTDALEGTSRTLPTLAAWLHANGRSNTIITGLNQQPILVPEILRKAFLAGTNPQHKGYWGTLHHCDQRVCEGADLALALWMSKEWVWDCFSIDEKCQIITWFKQVNQCETVDNNWHLFVLTVQIVLKALTGEDEVQYDKYERVKEFYVGDGWFRDGAKGNYDYYNAWAFHYSLYWFTQIDVDFDSTFINNALSDFVGNYRYFFGKEGFPFFGRSACYRLAAAAPLLAAVDLQSDKITIGEAKRAFHCNLKYFISNGALKAGLPTQGLFDEDVRLVDNYSGPASSLWSLRALNIALFCGEKINLWQAEEAPLAIEQGNFELDISAINMKILGVYETQEVIAIFKNEYTQDQSPLSRRLLAPSRWEQTIEKITGRANRPKNNLLRKGITCYSSKMESFFLEHHHHHH | not soluble |
| MKVRRTEQIYLKENDTISYMCHLSKNLYNQVNYILRQQFLKGEKLTGYRDLVKLFQEPSEIEDHNNYQRLPAQTAQWTVKKTVMAWYSFFKSMKAWKKHPDKFKGRPRLPGYKETDGEFLLVFTNQQCRIRDGILKFPKIMNMEVKTRLNENEIKLKEVRIVPQGTGYMIEIVYEKETADMPITKPKRAMGIDIGVRNLVTIGNNIHEIGIAVKAGLLKSINQYFNKELARYRSINDLQGNERKQTVKIRKLFMKRNRKVKDIMHKVSKSIVEYAKIMNIDTIVIGHNNRWKDSSNMGKKNNQNFVQLPFNMLIYQIKYKAEEIGITVIMQNEDYTSKCSFLDNESIEHHDTYMGKRIHRGIFRSATGKLIHADLQSSYNIIKKAIPEAFANGIEGIGLYPRSLSIRQMITSKGGCLEHHHHHH | not soluble |
| MKVTFMNLEERKKLETKSIDELDLIGKKVCVDTCVVIDGRITELIERGKLKDATIIIPEAVVSELEYQANMGREIGYKGIEELRKLIEKASEHNIKVEYYGERPTREEIFLAKSGEIDAMIRKVAKETNSILLTSDWIQYNLAKAQGIEAYFLEAAEEEVELVLD | not soluble |
| MKVTKADIVISAVKPEQYPDGDLPEIALAGRSNVGKSSFINKILNRKKLVRISSKPGKTQTLNFFLINEMMHFVDVPGYGYAKVSKTERAAWGKMIETYFTTREQLDAAVLVVDLRHKPTNDDVMMYDFLKHYDIPTIIIATKADKIPKGKWQKHLKVVKETLDIESGDEVVLFSSETGLGKEEAWKAIHKFTKTKNA | not soluble |
| MKVTSLDGRQLRKMLRKEAAARCVVLDCRPYLAFAASNVRGSLNVNLNSVVLRRARGGAVSARYVLPDEAARARLLQEGGGGVAAVVVLDQGSRHWQKLREESAARVVLTSLLACLPAGPRVYFLKGGYETFYSEYPECCVDVKPISQEKIESERALISQCGKPVVNVSYRPAYDQGGPVEI | not soluble |
| MKVYVVVPTYNESDNIVALMEKILAQRDNIHVLVVDDNSPDGTGEIAARMSSDNPRIHVLRRSGKMGLGSAYCDGFRVALRDGADFIIEMDADFSHDPATIPALLAATDKYDVVVGSRYLNGVSVVNWPIRRLMLSYFASVYTRFVTGLALRDCTSGFKCFRRRVIESVDLDTIRSDGYSFQIEMNYRCVERGFRVGEIPIIFIDRHAGSSKMSKKIVREAVLMVWKLKLGSLVKKLTRRGDRHAALEHHHHHH | soluble |
| MKWDEYVDIFDTDVVSKIIILRNLPINEGWIDINELAEELQLNKKSVKKYVELLKDDITYYVVDNDASLAFEKGHGYRLNLASSQAFQKLYTAIFRDSLTYQVMEDLFWGRFNGIVPATAKYHTSDATIRRLLKGFTEILAPLGLVINKSTWKIEGNEAYLRHFAYTIFMDLIRDTWPFDYIQETEVAQTVQKMMAFFNVEVAETVTRRVKYMVAISKVRSAQGAEYRPSAEQETYLEGNKHYQAFIEEMTATTLFLNKNDLTFVYFFLLANDQFYQDEATAQAILAHFDETEAPVYMLTHLVQHFLLEEIHMTPQLEKIRPQIFYYLFATHLFAELYYVQNVKMYNVFWNKIKEKYPVLLAELIQGLNQLYEQTGNELFTNKEFLALRYSSVLALSNDLIHREQKIVLGLKSGLPVLEEERVKLSIENNFRRFYALEVLRYSEASKEEWQNIDLLLVTSLADVETGHPEIFLFSSELTFEQYNRLNQKIVKINEKRTTSL | not soluble |
| MKWRCLIYIETRGDILFMTKWFNVGKIVNTHGVRGEIRVISRTDFPEERYKVGNTLYISNEKGTDYLPVKVTSHRQHKTFDLLTFEGYNNVDEVEKFKGSLIKVPEEQLGELAEGEYYYHEIIGCSVVTEEGEALGTIKEILSPGANDVWVIKRPKGQDLLIPYIDDVVLQVNIENKLVTIHVMEGLLLEHHHHHH | soluble |
| MKWSEYANLAQQSLEKFYLADTKEQFLNNFYPTENPEEDNKVFNYWWLAHLVEVRLDAYLRTKKQADLEVAEKTYLHNKNRNGGTLIHDFYDDMLWNALAAYRLYKATGKSIYLEDAQLVWQDLVDTGWNDIMGGGFAWRRPQMYYKNTPVNAPFIILSCWLYNELNETKYLEWAMKTYEWQTKVLVREDGFVEDGINRLEDGTIDYEWKFTYNQGVYIGANLELYRITKEAKYLDTANKTAAISLKELTEDGIFKDEGNGGDEGLFKGIFYRYFTDLIEETANKTYRDFVLNSCQILVENAKLDGYLLMGMNWKEKPSGKIPYSAELSGMIALEMAAKLELEHHHHHH | soluble |
| MKYDLIIIGSGSVGAAAGYYATRAGLNVLMTDAHMPPHQHGSHHGDTRLIRHAYGEGEKYVPLVLRAQMLWDELSRHNEDDPIFVRSGVINLGPADSTFLANVAHSAEQWQLNVEKLDAQGIMARWPEIRVPDNYIGLFETDSGFLRSELAIKTWIQLAKEAGCAQLFNCPVTAIRHDDDGVTIETADGEYQAKKAIVCAGTWVKDLLPELPVQPVRKVFAWYQADGRYSVKNKFPAFTGELPNGDQYYGFPAENDALKIGKHNGGQVIHSADERVPFAEVVSDGSEAFPFLRNVLPGIGCCLYGAACTYDNSPDEDFIIDTLPGHDNTLLITGLSGHGFKFASVLGEIAADFAQDKKSDFDLTPFRLSRFQ | soluble |
